{"source": "patent US20230310603A1", "about": "(BEIJING NEUROSURGICAL INSTITUTE, published 2023)", "binders": {"B1": {"name": "fusion protein shown in SEQ ID NO. 3 (anti-CD133 single-chain antibody, CD28, CD3), expressed on CAR-T 1 cells (other)", "chain": "QVQLVQSGAEVKKPGASVKVSCKASGYTFTDFEMHWVRQAPGQGLEWMGDIDPGTGDTAYNLKFKGRVTMTTDTSTSTAYMELRSLRSDDTAVYYCALGAFVYWGQGTLVTVSSGSTSGGGSGGGSGGGGSSDVVMTQSPLSLPVTPGEPASISCRSSQSLANSYGNTYLSWYLQKPGQSPQLLIYGISNRFSGVPDRFSGSGSGTDFTLKISRVEAEDVGVYYCLQGTHQPYTFGQGTKLEIKTTTPAPRPPTPAPTIASQPLSLRPEACRPAAGGAVHTRGLDFACDIYIWAPLAGTCGVLLLSLVITLYCRSKRSRLLHSDYMNMTPRRPGPTRKHYQPYAPPRDFAAYRSRVKFSRSADAPAYKQGQNQLYNELNLGRREEYDVLDKRRGRDPEMGGKPRRKNPQEGLYNELQKDKMAEAYSEIGMKGERRRGKGHDGLYQGLSTATKDTYDALHMQALPPR"}, "B2": {"name": "fusion protein shown in SEQ ID NO. 6 (anti-CD133 single-chain antibody, CD28, truncated body of IL7Rα, CD3, T2A, anti-TIM3 single-chain antibody), expressed in … (other)", "chain": "QVQLVQSGAEVKKPGASVKVSCKASGYTFTDFEMHWVRQAPGQGLEWMGDIDPGTGDTAYNLKFKGRVTMTTDTSTSTAYMELRSLRSDDTAVYYCALGAFVYWGQGTLVTVSSGSTSGGGSGGGSGGGGSSDVVMTQSPLSLPVTPGEPASISCRSSQSLANSYGNTYLSWYLQKPGQSPQLLIYGISNRFSGVPDRFSGSGSGTDFTLKISRVEAEDVGVYYCLQGTHQPYTFGQGTKLEIKTTTPAPRPPTPAPTIASQPLSLRPEACRPAAGGAVHTRGLDFACDIYIWAPLAGTCGVLLLSLVITLYCRSKRSRLLHSDYMNMTPRRPGPTRKHYQPYAPPRDFAAYRSKKRIKPIVWPSLPDHKKTLEHLCKKPRKNLNVSFNPESFLDCQIHRVDDIQARDEVEGFLQDTFPQQLEESEKQRLLGSNQEEAYVTMSSFYQNQRVKFSRSADAPAYKQGQNQLYNELNLGRREEYDVLDKRRGRDPEMGGKPRRKNPQEGLYNELQKDKMAEAYSEIGMKGERRRGKGHDGLYQGLSTATKDTYDALHMQALPPREGRGSLLTCGDVEENPGPMTNKCLLQIALLLCFSTTALSQVQLQQSGPGLVKPSHTLSLTCTVSGGSISSGGYYWSWTRQHPGMGLEWIGYISYSGSIYYTPSLKSRLTISVDTSKNQFSLKLSSVTAADTAVYYCASLDSWGSNRDYWGQGTLVTVSSGGGGSEIVLTQSPATLSLSPGERATLSCRASQSVSSYLAWYQQKPGQAPRLLIYDASNRATGIPARFSGSGSGTDFTLTISSLEPEDFAVYYCQQRSNWPLTFGGGTKVEIK"}, "B3": {"name": "fusion protein shown in SEQ ID NO. 4 (anti-CD133 single-chain antibody, CD28, truncated body of IL7Rα, CD3), expressed on CAR-T 2 cells (other)", "chain": "QVQLVQSGAEVKKPGASVKVSCKASGYTFTDFEMHWVRQAPGQGLEWMGDIDPGTGDTAYNLKFKGRVTMTTDTSTSTAYMELRSLRSDDTAVYYCALGAFVYWGQGTLVTVSSGSTSGGGSGGGSGGGGSSDVVMTQSPLSLPVTPGEPASISCRSSQSLANSYGNTYLSWYLQKPGQSPQLLIYGISNRFSGVPDRFSGSGSGTDFTLKISRVEAEDVGVYYCLQGTHQPYTFGQGTKLEIKTTTPAPRPPTPAPTIASQPLSLRPEACRPAAGGAVHTRGLDFACDIYIWAPLAGTCGVLLLSLVITLYCRSKRSRLLHSDYMNMTPRRPGPTRKHYQPYAPPRDFAAYRSKKRIKPIVWPSLPDHKKTLEHLCKKPRKNLNVSFNPESFLDCQIHRVDDIQARDEVEGFLQDTFPQQLEESEKQRLLGSNQEEAYVTMSSFYQNQRVKFSRSADAPAYKQGQNQLYNELNLGRREEYDVLDKRRGRDPEMGGKPRRKNPQEGLYNELQKDKMAEAYSEIGMKGERRRGKGHDGLYQGLSTATKDTYDALHMQALPPR"}, "B4": {"name": "fusion protein shown in SEQ ID NO. 5 (anti-CD133 single-chain antibody, CD28, CD3, T2A, anti-TIM3 single-chain antibody), expressed in CAR-T 3 cells (other)", "chain": "QVQLVQSGAEVKKPGASVKVSCKASGYTFTDFEMHWVRQAPGQGLEWMGDIDPGTGDTAYNLKFKGRVTMTTDTSTSTAYMELRSLRSDDTAVYYCALGAFVYWGQGTLVTVSSGSTSGGGSGGGSGGGGSSDVVMTQSPLSLPVTPGEPASISCRSSQSLANSYGNTYLSWYLQKPGQSPQLLIYGISNRFSGVPDRFSGSGSGTDFTLKISRVEAEDVGVYYCLQGTHQPYTFGQGTKLEIKTTTPAPRPPTPAPTIASQPLSLRPEACRPAAGGAVHTRGLDFACDIYIWAPLAGTCGVLLLSLVITLYCRSKRSRLLHSDYMNMTPRRPGPTRKHYQPYAPPRDFAAYRSRVKFSRSADAPAYKQGQNQLYNELNLGRREEYDVLDKRRGRDPEMGGKPRRKNPQEGLYNELQKDKMAEAYSEIGMKGERRRGKGHDGLYQGLSTATKDTYDALHMQALPPREGRGSLLTCGDVEENPGPMTNKCLLQIALLLCFSTTALSQVQLQQSGPGLVKPSHTLSLTCTVSGGSISSGGYYWSWTRQHPGMGLEWIGYISYSGSIYYTPSLKSRLTISVDTSKNQFSLKLSSVTAADTAVYYCASLDSWGSNRDYWGQGTLVTVSSGGGGSEIVLTQSPATLSLSPGERATLSCRASQSVSSYLAWYQQKPGQAPRLLIYDASNRATGIPARFSGSGSGTDFTLTISSLEPEDFAVYYCQQRSNWPLTFGGGTKVEIK"}}, "data": [{"target": "T1, CD133 on CD44- and CD133-positive glioma stem cells GSC20 (UniProt O43490 20-865, limits assumed)", "T1 sequence (looked up)": "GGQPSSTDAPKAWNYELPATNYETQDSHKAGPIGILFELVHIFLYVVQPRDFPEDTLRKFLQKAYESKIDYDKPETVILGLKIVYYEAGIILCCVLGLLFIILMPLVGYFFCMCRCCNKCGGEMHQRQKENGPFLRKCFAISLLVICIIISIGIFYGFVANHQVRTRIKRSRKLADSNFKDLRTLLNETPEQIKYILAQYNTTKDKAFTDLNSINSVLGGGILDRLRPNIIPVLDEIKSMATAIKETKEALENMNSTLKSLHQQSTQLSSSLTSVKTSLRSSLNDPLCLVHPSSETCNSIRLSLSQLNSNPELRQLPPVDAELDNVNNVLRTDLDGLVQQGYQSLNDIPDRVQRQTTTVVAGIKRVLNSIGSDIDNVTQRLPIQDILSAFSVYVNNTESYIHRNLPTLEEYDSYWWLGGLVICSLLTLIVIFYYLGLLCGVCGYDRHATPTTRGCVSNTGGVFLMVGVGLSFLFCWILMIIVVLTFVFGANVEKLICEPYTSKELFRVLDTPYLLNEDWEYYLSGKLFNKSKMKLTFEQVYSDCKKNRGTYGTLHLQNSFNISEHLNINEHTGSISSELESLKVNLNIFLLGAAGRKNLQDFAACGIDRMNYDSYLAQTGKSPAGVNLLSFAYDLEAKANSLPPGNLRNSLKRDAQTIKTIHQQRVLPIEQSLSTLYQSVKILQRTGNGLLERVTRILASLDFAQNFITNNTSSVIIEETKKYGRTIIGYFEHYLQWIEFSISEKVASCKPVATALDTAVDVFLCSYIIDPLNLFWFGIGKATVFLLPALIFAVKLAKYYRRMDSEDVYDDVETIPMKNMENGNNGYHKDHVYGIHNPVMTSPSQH", "assay": "cell-based or functional assay", "units": {"Lysis rate of glioma stem cells GSC20 by CAR-T cells (LDH release, 4 h), effect-target ratio 1:1": "%", "Lysis rate of glioma stem cells GSC20 by CAR-T cells (LDH release, 4 h), effect-target ratio 2:1": "%", "Lysis rate of glioma stem cells GSC20 by CAR-T cells (LDH release, 4 h), effect-target ratio 3:1": "%", "Lysis rate of glioma stem cells GSC20 by CAR-T cells (LDH release, 4 h), effect-target ratio 5:1": "%"}, "values": [{"binder": "B1", "Lysis rate of glioma stem cells GSC20 by CAR-T cells (LDH release, 4 h), effect-target ratio 1:1": 6.53, "Lysis rate of glioma stem cells GSC20 by CAR-T cells (LDH release, 4 h), effect-target ratio 2:1": 26, "Lysis rate of glioma stem cells GSC20 by CAR-T cells (LDH release, 4 h), effect-target ratio 3:1": 33.5, "Lysis rate of glioma stem cells GSC20 by CAR-T cells (LDH release, 4 h), effect-target ratio 5:1": 41.4}, {"binder": "B2", "Lysis rate of glioma stem cells GSC20 by CAR-T cells (LDH release, 4 h), effect-target ratio 1:1": 31.4, "Lysis rate of glioma stem cells GSC20 by CAR-T cells (LDH release, 4 h), effect-target ratio 2:1": 36.8, "Lysis rate of glioma stem cells GSC20 by CAR-T cells (LDH release, 4 h), effect-target ratio 3:1": 69.6, "Lysis rate of glioma stem cells GSC20 by CAR-T cells (LDH release, 4 h), effect-target ratio 5:1": 87.2}, {"binder": "B3", "Lysis rate of glioma stem cells GSC20 by CAR-T cells (LDH release, 4 h), effect-target ratio 1:1": 16.3, "Lysis rate of glioma stem cells GSC20 by CAR-T cells (LDH release, 4 h), effect-target ratio 2:1": 28, "Lysis rate of glioma stem cells GSC20 by CAR-T cells (LDH release, 4 h), effect-target ratio 3:1": 39.6, "Lysis rate of glioma stem cells GSC20 by CAR-T cells (LDH release, 4 h), effect-target ratio 5:1": 43.4}, {"binder": "B4", "Lysis rate of glioma stem cells GSC20 by CAR-T cells (LDH release, 4 h), effect-target ratio 1:1": 16.9, "Lysis rate of glioma stem cells GSC20 by CAR-T cells (LDH release, 4 h), effect-target ratio 2:1": 20.3, "Lysis rate of glioma stem cells GSC20 by CAR-T cells (LDH release, 4 h), effect-target ratio 3:1": 35.3, "Lysis rate of glioma stem cells GSC20 by CAR-T cells (LDH release, 4 h), effect-target ratio 5:1": 49.5}]}]}
